Assay results: patent US20230250156A1
“And” between values parts separate entries of the source, which are not always exact repeats. Equal entries are not always repeated.

Molecular target: SARS-CoV-2 RBD protein (SARS-CoV-2) (UniProt P0DTC2)

For “ACE2 Ig-TD Quad (ACE2(18-615) Ig-TD) (Fc fusion)”, the IC50 was 0.45 nM and 0.449 nM.
